Measurements from the supplement of paper PMC7877785.
± gives the uncertainty stated by the source.

Assay: self-splicing fitness, log relative to wild type (ln ratio); higher = more splicing; Tetrahymena group I intron in knt gene, E. coli kanamycin selection, DiMSum; sequences stand for … in CUCUCU…GGAGGGAAAAGUUAUCAGGCAUGCACCUGGUAGCUAGUCUUUAAACCAAUAGAUUGCAUCGGUUUAAAAGGCAAGACCGUCAAAUUGCGGGAAAGGGGUCAACAGCCGUUCAGUACCAAGUCUCAGGGGAAACUUUGAGAUGGCCUUGCAAAGGGUAUGGUAAUAAGCUGACGGACAUGGUCCUAACCACGCAGCCAAGUCCUAAGUCAACAGAUCUUCUGUUGAUAUGGAUGCAGUUCACAGACUAAAUGUCGGUCGGGGAAGAUGUAUUCUUCUCAUAAGAUAUAGUCGGACCUCUCCUUAAUGGGAGCUAGCGGAUGAAGUGAUGCAACACUGGAGCCGCUGGGAACUAAUUUGUAUGCGAAAGUAUAUUGAUUAGUUUUGGAGUACUCGUGGUCG
Outline: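 DiMSum derived fitness as the error-weighted combination of fold changes across replicates, kanamycin versus no kanamycin, normalised to wild type. E. coli BL21(DE3) held the library, which randomised all eight P1ex-region intron nucleotides within the knt kanamycin-resistance gene on pET-22b(+). Six replicate transformations grew overnight at 37°C or 30°C on LB agar with or without 25 μg/mL kanamycin, also containing 100 μg/mL carbenicillin, 50 μM IPTG and 0.2% rhamnose, and pooled colonies were amplicon-sequenced on an Illumina HiSeq 2500.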

| Sequence | self-splicing fitness (ln) (30 °C) | self-splicing fitness (ln) (37 °C) |
| --- | --- | --- |
| ACACAGCAAUAUUACGAUAG | -2.96 ± 0.074 | -1.62 ± 0.069 |
| ACACAGCAAUAUUACGAUUA | -1.66 ± 0.087 | -0.929 ± 0.07 |
| ACACAGCAAUAUUACGCAAU | -3.32 ± 0.15 | -1.94 ± 0.15 |
| ACACAGCAAUAUUACGCAGA | -2.48 ± 0.16 | -1.75 ± 0.12 |
| ACACAGCAAUAUUACGCCGU | -2.08 ± 0.13 | -1.13 ± 0.18 |
| ACACAGCAAUAUUACGCCUC | -2.92 ± 0.18 | -1.73 ± 0.2 |
| ACACAGCAAUAUUACGCGUA | -1.89 ± 0.078 | -1.2 ± 0.074 |
| ACACAGCAAUAUUACGCGUC | -3.69 ± 0.11 | -3.32 ± 0.15 |
| ACACAGCAAUAUUACGCUAA | -2.03 ± 0.1 | -1.19 ± 0.1 |
| ACACAGCAAUAUUACGCUGG | -1.21 ± 0.063 | -1.33 ± 0.091 |
| ACACAGCAAUAUUACGCUGU | -3.38 ± 0.14 | -3 ± 0.21 |
| ACACAGCAAUAUUACGGCAA | -1.49 ± 0.077 | -0.943 ± 0.081 |
| ACACAGCAAUAUUACGGCAG | -1.29 ± 0.067 | -0.371 ± 0.082 |
| ACACAGCAAUAUUACGGCAU | -1.12 ± 0.049 | 0.227 ± 0.062 |
| ACACAGCAAUAUUACGGCCC | -1.48 ± 0.13 | 0.924 ± 0.21 |
| ACACAGCAAUAUUACGGCUU | -0.496 ± 0.04 | -0.0695 ± 0.057 |
| ACACAGCAAUAUUACGGGUU | -2.86 ± 0.077 | -1.85 ± 0.082 |
| ACACAGCAAUAUUACGGUAC | -4.03 ± 0.23 | -2.03 ± 0.14 |
| ACACAGCAAUAUUACGGUGC | -3.91 ± 0.16 | -2.61 ± 0.14 |
| ACACAGCAAUAUUACGGUUG | -1.37 ± 0.066 | -1.31 ± 0.11 |
| ACACAGCAAUAUUACGUACU | -0.335 ± 0.05 | 0.175 ± 0.065 |
| ACACAGCAAUAUUACGUCAU | -2.34 ± 0.072 | -2.33 ± 0.094 |
| ACACAGCAAUAUUACGUCCG | -1.3 ± 0.079 | 0.213 ± 0.11 |
| ACAGAGCAAUAUUACGAAUC | -2.92 ± 0.36 |  |
| ACAGAGCAAUAUUACGAAUG | -3.82 ± 0.16 | -2.51 ± 0.19 |
| ACAGAGCAAUAUUACGACUU | -2.44 ± 0.16 | -1.52 ± 0.15 |

| Sequence | self-splicing fitness (ln) (30 °C) | self-splicing fitness (ln) (37 °C) |
| --- | --- | --- |
| ACAGAGCAAUAUUACGAGCU | -3.43 ± 0.18 | -2.22 ± 0.22 |
| ACAGAGCAAUAUUACGCAAU | -3.59 ± 0.32 | -2.42 ± 0.32 |
| ACAGAGCAAUAUUACGCACU | -3.25 ± 0.17 | -1.33 ± 0.14 |
| ACAGAGCAAUAUUACGCAUU | -4.18 ± 0.27 | -2.99 ± 0.31 |
| ACAGAGCAAUAUUACGCCAG | -2.37 ± 0.35 | -1.71 ± 0.49 |
| ACAGAGCAAUAUUACGCCGC | -3.09 ± 0.48 | -1.07 ± 0.36 |
| ACAGAGCAAUAUUACGCGUU |  | -1.16 ± 0.29 |
| ACAGAGCAAUAUUACGGAGA | -3.21 ± 0.26 | -2.6 ± 0.29 |
| ACAGAGCAAUAUUACGGCUG | -0.984 ± 0.096 | -0.796 ± 0.13 |
| ACAGAGCAAUAUUACGGGAU | -3.52 ± 0.11 | -3.03 ± 0.15 |
| ACAGAGCAAUAUUACGGUAA | -3.43 ± 0.25 | -2.26 ± 0.23 |
| ACAGAGCAAUAUUACGUAGU | -1.7 ± 0.14 | -2.87 ± 0.21 |
| ACAGAGCAAUAUUACGUAUG | -2.91 ± 0.17 | -3.39 ± 0.37 |
| ACAGAGCAAUAUUACGUCAG | -3.02 ± 0.13 | -2.43 ± 0.2 |
| ACAGAGCAAUAUUACGUGCU | -4.27 ± 0.37 | -2.48 ± 0.41 |
| ACAGAGCAAUAUUACGUGGU | -3.82 ± 0.2 | -2.37 ± 0.21 |
| ACAGAGCAAUAUUACGUUGG | -2.73 ± 0.16 | -3.57 ± 0.19 |
| ACAGAGCAAUAUUACGUUUU | -3.47 ± 0.24 | -3.26 ± 0.32 |
| ACAUAGCAAUAUUACGAAGA | -3.19 ± 0.18 | -2.72 ± 0.16 |
| ACAUAGCAAUAUUACGACGG | -1 ± 0.091 | -0.32 ± 0.12 |
| ACAUAGCAAUAUUACGAGGC | -4.03 ± 0.36 | -2.2 ± 0.32 |
| ACAUAGCAAUAUUACGAUUU | -0.687 ± 0.062 | -0.157 ± 0.081 |
| ACAUAGCAAUAUUACGCAAA | -3.29 ± 0.16 | -2.25 ± 0.14 |
| ACAUAGCAAUAUUACGCACA | -0.98 ± 0.099 | -0.0165 ± 0.12 |
| ACAUAGCAAUAUUACGCACG | -2.07 ± 0.2 | -1.01 ± 0.15 |
| ACAUAGCAAUAUUACGCACU | -0.38 ± 0.083 | 0.676 ± 0.1 |

| Sequence | self-splicing fitness (ln) (30 °C) | self-splicing fitness (ln) (37 °C) |
| --- | --- | --- |
| ACAUAGCAAUAUUACGCCUU | -1.25 ± 0.083 | -0.057 ± 0.085 |
| ACAUAGCAAUAUUACGCGCC | -0.408 ± 0.16 | 0.199 ± 0.26 |
| ACAUAGCAAUAUUACGCUAU | -2.9 ± 0.13 | -2.38 ± 0.2 |
| ACAUAGCAAUAUUACGCUGC | -2.01 ± 0.22 | -0.747 ± 0.15 |
| ACAUAGCAAUAUUACGCUGG | -2.36 ± 0.11 | -1.46 ± 0.12 |
| ACAUAGCAAUAUUACGGCAU | -1.06 ± 0.072 | -0.486 ± 0.079 |
| ACAUAGCAAUAUUACGGCGG | -1.04 ± 0.049 | -0.52 ± 0.072 |
| ACAUAGCAAUAUUACGGGAU | -1.88 ± 0.1 | -0.904 ± 0.12 |
| ACAUAGCAAUAUUACGGGUA | -2.8 ± 0.19 | -2.35 ± 0.14 |
| ACAUAGCAAUAUUACGGGUC | -3.93 ± 0.25 | -3.24 ± 0.28 |
| ACAUAGCAAUAUUACGGUCC | -1.91 ± 0.087 | -1.77 ± 0.11 |
| ACAUAGCAAUAUUACGUAAA | -1.66 ± 0.12 | -1.75 ± 0.21 |
| ACAUAGCAAUAUUACGUACC | -0.809 ± 0.17 | 0.0877 ± 0.2 |
| ACAUAGCAAUAUUACGUAGC | -2.78 ± 0.13 | -2.04 ± 0.19 |
| ACAUAGCAAUAUUACGUAGG | -3.02 ± 0.13 | -1.84 ± 0.12 |
| ACAUAGCAAUAUUACGUCUG | -1.24 ± 0.071 | -0.845 ± 0.09 |
| ACCAAGCAAUAUUACGAAAU | -2.89 ± 0.12 | -2.08 ± 0.15 |
| ACCAAGCAAUAUUACGAACU | -0.54 ± 0.061 | -0.819 ± 0.08 |
| ACCAAGCAAUAUUACGACAA | -2.14 ± 0.15 | -1.11 ± 0.12 |
| ACCAAGCAAUAUUACGACAU | -1.04 ± 0.011 | -0.296 ± 0.032 |
| ACCAAGCAAUAUUACGAGUC | -3.65 ± 0.2 | -1.25 ± 0.15 |
| ACCAAGCAAUAUUACGAUUA | -2.23 ± 0.11 | -1.03 ± 0.085 |
| ACCAAGCAAUAUUACGAUUU | -1.51 ± 0.041 | -1.26 ± 0.054 |
| ACCAAGCAAUAUUACGCAUA | -1.77 ± 0.068 | -1.44 ± 0.073 |
